In US5837813, “Fibronectin Type III polypeptides” (La Jolla Cancer Research Foundation, dated 1998):

Assays:
human fibronectin [1] = molecular target: T1, human fibronectin (human, UniProt P02751); assay: solid-phase competition, 125I-fibronectin on coated fibronectin
human fibronectin [2] = molecular target: T1, human fibronectin; assay: solid-phase competition, 125I-14 kDa fragment on coated fibronectin

NAPQPSHISKYILRWRPKNSVGRWKEATIPG [polypeptide P1] was tested, and the IC50 (human fibronectin [1]) was ~1000 nM and the IC50 (human fibronectin [2]) was 1000 nM.
